In assay [1] the target is T1, human melanocortin receptor type 1 (MC1r) (human, UniProt Q01726 1-317).
T1 construct: whole, on cells; also called MCr1; MCR1

Assay [2] has as its target T1, human melanocortin receptor type 1 …. In words: cell-based or functional assay.

Consider two molecules from US20150297672A1 (TXP PHARMA, published 2015).

As usually defined, the IC50 is the concentration that inhibits the measured activity by half. A high value points to weaker potency in that assay.

Where no end group is shown, it is not given here. [ ]: non-standard residue; d: D form.

T1 sequence (Q01726 whole entry): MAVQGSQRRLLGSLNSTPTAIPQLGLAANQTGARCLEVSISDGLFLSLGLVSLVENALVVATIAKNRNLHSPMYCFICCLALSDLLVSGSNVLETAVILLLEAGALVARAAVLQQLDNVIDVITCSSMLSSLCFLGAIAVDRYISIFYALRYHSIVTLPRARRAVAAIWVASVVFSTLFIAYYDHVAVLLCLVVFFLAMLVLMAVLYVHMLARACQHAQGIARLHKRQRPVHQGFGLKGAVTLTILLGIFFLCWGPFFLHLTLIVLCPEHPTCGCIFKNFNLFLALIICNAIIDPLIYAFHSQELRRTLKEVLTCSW

B1: α-MSH analogue #1: Ac-(Ac-Lys-Lys-)Lys-Ser-Tyr-Ser-Met-Glu-His-Phe-Arg-Trp-Gly-Lys-Pro-Val-NH2 (Ac-(Ac-Lys-Lys-)Lys-SEQ ID NO:2) (peptide)
peptide: Ac-KSYSMEHFRWGKPV-NH2
chain: Ac-Lys-Lys
modifications: also: bond at chain A 1 to a chain's C-terminus via isopeptide: branch C-terminus to Lys1 ε-amine
notes: Branched peptide
Regarding B1, the IC50 in assay [1] amounted to 0.0645 nM. The “EC50, cAMP production” value in assay [2] came to 0.2 nM.

B2: γ-MSH analogue #2: Ac-(Ac-Lys-Lys-)Lys-Tyr-Val-Met-Gly-His-Phe-Arg-(D-Trp)-Asp-Arg-Phe-Gly-NH2 (D-Trp version of SEQ ID NO:8) (peptide)
peptide: Ac-KYVMGHFR[dW]DRFG-NH2
chain: Ac-Lys-Lys
modifications: also: bond at chain A 1 to a chain's C-terminus via isopeptide: branch C-terminus to Lys1 ε-amine
notes: Branched peptide; the second chain is the side branch on Lys1
Take B2: in assay [1], inhibition was half-maximal at 0.606 nM (IC50).
